B1: SMAC (natural protein)
chain: AVPIAQKSEPHSLSSEALMRRAVSLVTDSTSTFLSQTTYALIEAITEYTKAVYTLTSLYRQYTSLLGKMNSEEEDEVWQVIIGARAEMTSKHQEYLKLETTWMTAVGLSEMAAEAAYQTGADQASITARNHIQLVKLQVEEVHQLSRKAETKLAEAQIEELRQKTQEEGEERAESEQEAYLRED

Key:
[1] = molecular target: BIRC6 (human, wild type, recombinant) (human) (UniProt Q9NR09); experiment: mass photometry; details: remark: other sources report otherwise
[2] = molecular target: BIRC6 (human, wild type, recombinant) (human) (UniProt Q9NR09); experiment: cryo-EM structure; details: remark: other sources report otherwise
cryo-EM structure = molecular target: the molecule itself; experiment: cryo-EM structure

Molecule	stoichiometry N [1]	stoichiometry N [2]	stoichiometry N (cryo-EM structure)
BIRC6 (human, wild type, recombinant), Q9NR09 1-4857	2	2	–
B1	–	–	2
